Source: paper PMC10155811 (2022)

Key:
[1] = biological target: Bub1 peptides encompassing the putative PP2A-B56 binding motif (amino acids 654-FSPIQE-659) (human, UniProt O43683); assay: ITC; doubly phosphorylated Bub1 peptide KFpSPIQEKpSP
BubR1 = assay: ITC; unphosphorylated peptide …
BubR1-p = assay: ITC; doubly phosphorylated peptide KLpSPIIEDpSR

Kd [1]: 41 µM | Kd (BubR1): 4.6 µM | Kd (BubR1-p): 0.12 µM
B1: B56α (natural protein)
chain: not shown
